Measurements reported in PMC10250227 (Nucleic Acids Research, 2023).
Like-named read-outs stand apart in the source and are kept apart here.

Experiments:
NEQ395 = biological target: T1, NEQ395 (Nanoarchaeum equitans, UniProt Q74N22); assay: RP-HPLC primase assay with omission of single rNTPs; assay type: biochemical; conditions: pH 6.5, 70°C
T1 sequence (Q74N22 1-393): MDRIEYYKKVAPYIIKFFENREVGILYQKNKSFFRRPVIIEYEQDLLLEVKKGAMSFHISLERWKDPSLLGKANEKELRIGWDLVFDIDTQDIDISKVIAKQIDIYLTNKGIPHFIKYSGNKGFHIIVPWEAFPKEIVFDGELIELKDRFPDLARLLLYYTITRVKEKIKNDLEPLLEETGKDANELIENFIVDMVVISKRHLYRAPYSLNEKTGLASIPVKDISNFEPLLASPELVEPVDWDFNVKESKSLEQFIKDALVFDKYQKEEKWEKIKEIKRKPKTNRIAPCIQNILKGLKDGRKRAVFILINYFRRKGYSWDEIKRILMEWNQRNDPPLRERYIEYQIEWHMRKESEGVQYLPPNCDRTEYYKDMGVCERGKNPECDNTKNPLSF

[1] = biological target: T2, NEQ395 DNA primase (monomeric PriS-PriL) (Nanoarchaeum equitans, UniProt Q74N22 1-393); assay: fluorescence anisotropy
T2 sequence: T1 sequence (Q74N22 1-393)

[2] = biological target: T2, NEQ395 DNA primase (monomeric PriS-PriL); assay: fluorescence anisotropy; remark: listed apart in the source
[3] = biological target: T2, NEQ395 DNA primase (monomeric PriS-PriL); assay: fluorescence anisotropy; remark: listed apart in the source

With Nc1ncnc2c1ncn2[C@@H]1O[C@H](COP(=O)(O)OP(=O)(O)OP(=O)(O)O)[C@@H](O)[C@H]1O [ATP] the “RP-HPLC primase assay with omission of single rNTPs” value (NEQ395; initiating nucleotide, ssDNA template Fid1-4, Mn2+) was “using an rNTP mix without ATP (the first cognate base needed for synthesis) did not initiate”.

Nc1nc2c(ncn2[C@@H]2O[C@H](COP(=O)(O)OP(=O)(O)OP(=O)(O)O)[C@@H](O)[C@H]2O)c(=O)[nH]1 [GTP] was tested, and the “RP-HPLC primase assay with omission of single rNTPs” value (NEQ395; elongating nucleotide, ssDNA template Fid2, Mn2+) was “In presence of GTP, extension to the full-length primers occurs”.

CTGTGCTCA (ssDNA) [t9-ATA (lacks ATA)] showed a Kd [1] of 2870 nM.

TGTAAAACGACGGCCAGT (ssDNA) [t18] was tested, and the Kd [2] was 510 nM.

CTATACTCA (ssDNA) [t9] showed a Kd [1] of 1060 nM and a Kd [3] of 580 nM.

B1: t18_ds (dsDNA)
DNA 1: TGTAAAACGACGGCCAGT
DNA 2: ACTGGCCGTCGTTTTACA
With B1 the Kd [2] was 650 nM.
